Experimental data taken from publication PMC4725857.

Columns and labels:
[1] = target: BBK32-C (C-terminal region of BBK32, residues 206-354) (B. burgdorferi B31) (UniProt O50835); test: SPR; Biacore 3000, 25°C; BBK32 proteins immobilised by amine coupling on a C1 sensor chip; running buffer HBS-T-Ca2+ (20 mM HEPES pH 7.3, 140 mM NaCl, 0.005% Tween 20, 5 mM CaCl2), 10 μl/min; C1 0.2-100 nM, C1r enzyme 0.39-200 nM or 2.0-1000 nM series, 1:1 (Langmuir) kinetic fit; single C1 components at a fixed 50 nM
[2] = target: BBK32-FL (recombinant BBK32, residues 21 to 354) (B. burgdorferi B31) (UniProt O50835); test: as above
[3] = target: C1r enzyme (activated human complement C1r protease) (human)
[4] = target: first component of human complement, C1 (C1 complex) (human) (UniProt P02745)

**Q.** Which Kd [1] does the source give for “first component of human complement, C1 (C1 complex) (from UniProt P02745 23-245; P02746 28-253; P02747 29-245)” here?
**A.** 2.3 nM

**Q.** “C1r enzyme (activated human complement C1r protease)” was tested. Which Kd [2] did it give?
**A.** 15 nM

**Q.** What about the koff [2] of the same molecule?
**A.** 0.00022 s⁻¹

**Q.** And the kon [2]?
**A.** 19000 M⁻¹ s⁻¹

**Q.** What about the Kd [1] of the same molecule?
**A.** 32 nM

**Q.** And the koff [1]?
**A.** 0.00011 s⁻¹

**Q.** And the kon [1]?
**A.** 3900 M⁻¹ s⁻¹

B1: BBK32-FL (recombinant BBK32, residues 21 to 354) (natural protein)
chain: DLFIRYEMKEESPGLFDKGNSILETSEESIKKPMNKKGKGKIARKKGKSKVSRKEPYIHSLKRDSANKSNFLQKNVILEEESLKTELLKEQSETRKEKIQKQQDEYKGMTQGSLNSLSGESGELEEPIESNEIDLTIDSDLRPKSSLQGIAGSNSISYTDEIEEEDYDQYYLDEYDEEDEEEIRLSNRYQSYLEGVKYNVDSAIQTITKIYNTYTLFSTKLTQMYSTRLDNFAKAKAKEEAAKFTKEDLEKNFKTLLNYIQVSVKTAANFVYINDTHAKRKLENIEAEIKTLIAKIKEQSNLYEAYKAIVTSILLMRDSLKEVQGIIDKNGVWY
**Q.** How did the IC50 of C1r enzyme activity (cleavage of C1s proenzyme by 50 nM C1r enzyme, SDS-PAGE densitometry) [3] turn out when B1 was run?
**A.** 670 nM

**Q.** And the IC50 of classical pathway inhibition, ELISA: C3b detection (immobilised human IgM, 1% human serum) [4]?
**A.** 34 nM

**Q.** And the IC50 of classical pathway inhibition, ELISA: C4b detection (immobilised human IgM, 1% human serum) [4]?
**A.** 34 nM

**Q.** What about the IC50 of inhibition of CP-mediated hemolysis (CP50, sensitized sheep erythrocytes, 1% normal human serum) [4] of the same molecule?
**A.** 110 nM

B2: BBK32-C (C-terminal region of BBK32, residues 206-354) (domain or fragment)
chain: SNRYQSYLEGVKYNVDSAIQTITKIYNTYTLFSTKLTQMYSTRLDNFAKAKAKEEAAKFTKEDLEKNFKTLLNYIQVSVKTAANFVYINDTHAKRKLENIEAEIKTLIAKIKEQSNLYEAYKAIVTSILLMRDSLKEVQGIIDKNGVWY
**Q.** B2 was tested. Which IC50 of C1r enzyme activity (cleavage of C1s proenzyme by 50 nM C1r enzyme, SDS-PAGE densitometry) [3] did it give?
**A.** 540 nM

**Q.** What about the IC50 of classical pathway inhibition, ELISA: C3b detection (immobilised human IgM, 1% human serum) [4] of the same molecule?
**A.** 4.7 nM

**Q.** And the IC50 of classical pathway inhibition, ELISA: C4b detection (immobilised human IgM, 1% human serum) [4]?
**A.** 5.6 nM

**Q.** What about the IC50 of inhibition of CP-mediated hemolysis (CP50, sensitized sheep erythrocytes, 1% normal human serum) [4] of the same molecule?
**A.** 60 nM
